Values joined by “and” are separate entries in the source; they are usually repeats but may differ in a detail not shown here. Equal entries are not always repeated. Where two headings read alike, the source gives them in different places.
Columns and labels:
[1] = tested on: ribosomes (nuclease-treated rabbit reticulocyte lysate); assay: Cell-free protein synthesis inhibition assay (rabbit reticulocyte cell-free translation); format: biochemical
Experimental: The ribosome-inhibiting activity of PAP was analyzed in a cell-free translation system obtained in kit form from Promega Biotec, Inc. (Madison, Wis.) and based on a method developed by Pelham and Jackson. Pelham et al., Eur. J. Biochem., 67, 247 (1976). This system consists of the following: nuclease-treated rabbit reticulocyte lysate (35 μL), 1 mM animo acid mixture minus leucine (1 μl), [^3H] leucine (183 Ci/mmol, 1 mCi/mL, Amersham Corp., Arlington Hts, Ill.), 5 μl of brome mosaic virus RNA (2 μL of 0.5 μg/μL stock), and water or buffer to bring the final volume to 50 μL per assay tube. Samples are diluted in PBS and 2.5-5 μL amounts were added to the lysate. Control samples minus toxin were set up in triplicate. At 0 hr (immediately after adding [^3H]-leucine and RNA and mixing gently to start the reaction), 10 μL aliquots were removed from the control and mixed with 1 mL 1 N NaOH to stop the reaction. The control toxin-treated samples were incubated an additional 60 minutes at 37° C., at which time 10 μL samples were again removed to NaOH, mixed, and 50 μL of 30% H2O2 added to decolorize the samples.
Following 10 minutes incubation at 37° C., the tubes were transferred to an ice bath and 2 mL of cold 4% casamino acids followed by 2 mL of cold 50% trichioroacetic acid (TCA) were added to precipitate the synthesized protein. After 30 minutes on ice, the samples were filtered through GF/F glass microfiber filters (Whatman, Hillsboro, Oreg.). The extent of protein synthesis inactivation is determined as percent control response=100 ×([^3H]-leucine incorporation [mean cpm at t60′−mean cpm at t0] for the toxin-treated samples)/([^3H]-leucine incorporation [mean cpm at t60′−mean cpm at t0] for the untreated control).

BALB/c mice = assay: Acute toxicity of PAP, single i.v. injection; format: in vivo
Experimental: Female BALB/c mice weighing approximately 20 grams were given a single intravenous injection of purified PAP (Lot #P-1993) via the tail vein. Eight different doses were used ranging from 10 μg to 175 μg and each dose was tested in 5 mice. Mice were monitored for 30 days for morbidity and mortality. […] This non-toxic dose is >90-fold higher than the highest PAP dose that will be given to patients as a TXU-7 antibody conjugate. Deaths were observed only in the groups receiving 150 μg/20 g mouse (=7.5 mg/kg) or higher doses.

B1: PAP: 29 kDa ribosome-inactivating protein from spring leaves of pokeweed (Phytolacca americana) (protein)
chain: VNTIIYNVGSTTISKYATFLNDLRNEAKDPSLKCYGIPMLPNTNTNPKYVLVELQGSNKKTITLMLRRNNLYVMGYSDPFETNKCRYHIFNDISGTERQDVETTLCPNANSRVSKNINFDSRYPTLESKAGVKSRSQVQLGIQILDSNIGKISGVMSFTEKTEAEFLLVAIQMVSEAARFKYIENQVKTNFNRAFNPNPKVLNLQETWGKISTAIHDAKNGVLPKPLELVDASGAKWIVLRVDEIKPDVALLNYVGGSCQTTY
IC (mean SE) value, ribosome inhibitory activity (first IC value) ([1]; purified PAP batches (n=6)): 0.34 ± 0.06 ng/mL | IC value, ribosome inhibitory activity (second IC value) ([1]; purified PAP batches (n=6)): 3.7±1.1 ng/mL and 130.37 pM | IC50 ([1]; purified PAP batches (n=6), read-out: IC value, ribosome inhibitory activity (first IC value)): 0.0122 nM | range of first IC value ([1]; range over PAP batches (n=6)): 0.17 to 0.58 ng/mL | range of second IC value ([1]; range over PAP batches (n=6)): 0.63-7.5 ng/mL and 22-263 pM | IC50 ([1]; range over PAP batches (n=6), read-out: range of first IC value): 0.006 to 0.02 nM | non-toxic dose relative to highest PAP dose to be given to patients as conjugate (BALB/c mice; 100 μg/20 g mouse dose): > 90 fold | lethal dose relative to highest PAP dose to be given to patients as TXU-7-PAP (BALB/c mice; 150 μg/20 g mouse dose): > 60 fold | Acute Toxicity in Mice LD50 (i.v.) (BALB/c mice; i.v.): LD50 (i.v.) 150 mg/mouse
